{"source": "paper PMC12377726", "about": "(Proceedings of the National Academy of Sciences of the …, 2025)", "data": [{"biological_target": "eOD-GT8 (engineered outer domain germline-targeting version 8), monomer (HIV-1 gp120 engineered outer domain, …)", "values": [{"binder": "G001_gp1_V10_VRC01c_2021-0106 (antibody, V domains shown) VH: QVQLVQSGAEVKKPGASVKVSCKASGYTFTDYYIHWVRQAPGQGLEWMGWLNPNSGGTNYAQKFQDWVTMTRDTSINTAYMELSRLRSDDTAVYYCASSLSGYGSFSFDYWGQGTLVTVSS VL: EIVLTQSPGTLSLSPGERATLSCRASQSGSSRSLAWYQQKPGQAPRLLIYGASSRATGIPDRFSGSGSGTDFTLTINRLEPEDSAVYYCQQYDSFGQGTKLEIK", "binding result": "binds"}, {"binder": "G001_gp1_V10_VRC01c_2021-0112 (antibody, V domains shown) VH: not shown VL: EIVLTQSPGTLSLSPGERATLSCWASQSVNSRYVAWYQQKPGQAPRLLIYGASSRATGIPDRFSGSGSGTDFTLTISRLEPEDFAVYYCQQYETFGQGTRLEIK", "binding result": "binds"}, {"binder": "G001_gp1_V10_VRC01c_2021-0107 (antibody, V domains shown) VH: not shown VL: DIQMTQSPSSLSASVGDRVTITCRASQSISSYLNWYQQKPGKAPKLLIYAASSLQSGVPSRFSGSGSGTDFTLTISSLQPEDFATYYCQHQGTFGQGTKVEIK", "binding result": "binds"}, {"binder": "G001_gp1_V10_VRC01c_183 (antibody, V domains shown) VH: QVHPVQSGAEVKKPGASVKVSCEASGYTFSGYYMHWVRQAPGQGLEWMGWINLNSGGTNYAQKFQDRVTMTRDTSISTAYMELSSLRSDDTAFYYCAHNGGNGGTWYFHYWGQGTLVTVSS VL: EIVLTQSPGTLSLSPGERATLSCRASQSVSNNYLAWYQQKPGQAPRLLIYGASRRATGIPDRFSGSGTGTDFTLTISRLEPEDSAVYYCQQYETFGPGTKVDIK", "binding result": "binds"}, {"binder": "G001_gp1_V10_VRC01c_2021-0097 (antibody, V domains shown) VH: QVQLVQSGAEVKKPGASVKVSCKASGHTFTGYYMHWVRQAPGQGLEWMGWINSNSGGTNYAQKFQGWVTMTRDTSINTVYMELNRLTSDDTAVYYCAGGGRSTYYSWWFDPWGQGTLVTVSS VL: EIVLTQSPGTLSLSPGERATLSCRASQSVSSSYLAWYQQKPGQAPRLLIYGASSRATGIPDRFSGSGSGTDFTLTISRLEPEDLAVYYCQQWETFGQGTKVEIK", "binding result": "binds"}, {"binder": "G001_gp1_V10_VRC01c_2021-0098 (antibody, V domains shown) VH: QVQLVQSGAEVKKPGASVKVSCKASGNTFSGYYMHWVRQAPGQGLEWMGWINPNSGGTNYAQKFQGWVTMTRDTSISTAYMELSRLRSDDTAVYYCARGGRSAYYSWWFDPWGQGTLVTVSS VL: EIVLTQSPGTLSLSPGERATLSCRASQSVSSSYLAWYQQKPGQAPRLLIYGAFSRATGIPDRFSGSGSGTDFTLTISRLEPEDFAVYYCQQWETFGQGTKVEIK", "binding result": "binds"}, {"binder": "G001_gp1_V10_VRC01c_2021-0092 (antibody, V domains shown) VH: QVQLVQSGAEVKKPGASVKVSCKASGYTFTGYYMHWVRQAPGHGLEWMGWINPNSGGSNYAQRFQGWVTMTRDTSISTAYMELTRLRSDDTAVYYCARELLAAAGTVFDYWGQGTLVTVSS VL: EIVLTQSPGTLSLSPGERATLSCRASQSVSSSYLAWYQQKPGQAPRLLIYGASSRATGIPDRFSGSGSGTDFTLTISRLEPEDFAVYYCQQYETFGQGTKVEIN", "binding result": "binds"}, {"binder": "G001_gp1_V10_VRC01c_2021-0110 (antibody, V domains shown) VH: QVQLVQSGAEVKKPGASVRVSCKASGYTFTGYYMHWVRQAPGQGLEWMGWTNPNSGGTNYAQKFQGWVTMTRDTSISTAYMELSRLRSDDTAVYYCARGEAYSTRYFDLWGRGTLVTVSS VL: EIVLTQSPGTLSLSPGERATLSCRASQSVSSSYLAWYQQKPGQAPRLLIYDTSSRATGIPDRFSGSGSGTDFTLTISRLEPEDFAVYYCQQYETFGQGTKVEIK", "binding result": "binds"}, {"binder": "G001_gp1_V10_VRC01c_2021-0108 (antibody, V domains shown) VH: QVQLVQSGAEVKKPGASVKISCKASGYTFSGYYMHWVRQAPGQGLEWMGWINPNSGGTNYAQKFQDWVTMTRDTSISTVYMELSRLRSDDTAVYYCARDWCSGDTCYSGPTFDYWGQGTLVTVSS VL: ESVLTQSPGTLSLSPGERATLSCRASQSVSSNYLAWYQQKPGQAPRLLIYGASSRATGIPDRFSGSGSGTDFTLTISRLEPEDFAVYYCQQYETFGQGTKVEIK", "binding result": "binds"}, {"binder": "G001_gp1_V10_VRC01c_2021-0101 (antibody, V domains shown) VH: QVHLVQSGAEVKKPGASVKVSCKASGYTFTGYSMHWVRQAPGQGLEWMGWINPNSGGTNYAQKFQGRVTMTRDTSINTGYMELSRLRSDDTAVYYCARPHSNWYFDLWGRGTLVTVSS VL: EIVLTQSPGTLSLSPGERATLSCRASQSVSSNYLAWYQQKPGQAPRLLIYGASSRATGIPDRFSGSGSGTDFTLTISRLEPEDFAVYYCQQYETFGQGTKVEIK", "binding result": "binds"}, {"binder": "G001_gp1_V10_VRC01c_2021-0095 (antibody, V domains shown) VH: not shown VL: DIQMTQSPSSLSASVGDRVTITCQASQDISNYLNWYQQKPGKAPQLLIYDASNLETGVPSRFSGRGSGTDFTFTISSLQPEDIATYYCQQYDTFGQGTRLEIK", "binding result": "binds"}, {"binder": "G001_gp1_V10_VRC01c_2021-0109 (antibody, V domains shown) VH: QVQLVQSGAEVKKPGASVKVSCKASGYSFTGYYMHWVRQAPGQGLEWMGWMNPNSGGTNYAQKFQGWVTMTRDTSISTAYMELSRLRSDDSAVYYCARARSGYSSGWYWAYWGQGTLVTVSS VL: DIQMTQSPSSLSASVGDRVTITCQASQDISNYLNWYQQKPGKAPKLLIYDASNLETGVPSRFSGSGSGTDFTFTISSLQPEDIATYYCQQYEFFGGGTKVEIK", "binding result": "binds"}, {"binder": "G001_gp1_V10_VRC01c_2021-0100 (antibody, V domains shown) VH: PVQLVQSGAEVKKPGASVKVSCKASGYTFTGYYIHWVRQAPGQGLEWMGWINPNSGGTNYAQKFQGRVTMTRDTSVSTAYMELSRLRSDDTAVYYCARRLAAASGVFGVRFDPWGQGTLVTVSS VL: DIQMTQSPSSLSASVGDRITITCQASQDISNYLNWYQQRPGKAPKLLIYDASNLETGVPSRFSGSGSGTDFTFTISSLQPEDIATYYCQQYDFFGPGTKVDIK", "binding result": "binds"}, {"binder": "G001_gp1_V10_VRC01c_2021-0114 (antibody, V domains shown) VH: QVQLVQSGAEVKKPGASVKVSCKASGYTFTGYNIHWVRQDPGQGLEWMGWINPNSGGTNYAQKFQDWVTMTRDMSISTAYMELSRLRSDDTAIYYCAAVAGRRGRWAFDIWGQGTMVTVSS VL: not shown", "binding result": "binds"}, {"binder": "G001_gp1_V10_VRC01c_2021-0093 (antibody, V domains shown) VH: QVQLVQSGAEVHNPGASVKVSCKASGYTFSDHYIHWVRQAPGQGLEWMGWINPNSGGTNYAQKFQGWVSMTRDTSITTAYMELSRLRSADTAVYYCAIPGICPGGNCYSYYFDSWGQGTLVSVSS VL: EIVLTQSPGTLSVSPGERATLSCRSSQSVSSLAWYQLKPGQAPRLLIYGAYNRAIGIPDRFSGSGSGTDFTLTISRLEPEDLAVYYCQQYEFFGQGTKLEIK", "binding result": "binds"}, {"binder": "G001_gp1_V10_VRC01c_2021-0103 (antibody, V domains shown) VH: not shown VL: QSALTQPRSVSGSPGQSVTISCTGTSSDVGGYNYVSWYQQHPGKAPKLMIYDVSKRPSGVPDRFSGSKSGNTASLTISGLQAEDEADYYCCSYEVFGGGTKLTVL", "binding result": "binds"}, {"binder": "G001_gp1_V10_VRC01c_2021-0099 (antibody, V domains shown) VH: QVQLVQSGAEVKKPGASVKVSCKASGNTFTDYYMYWVRQAPGQGLEWMGWINPNSGGTNYAQKFQGRVTMTRDTSISTAYMELSRLRSDDTAVYYCAGRHYDDSSGYKAFQHWGQGTLVTVSS VL: DIQMTQSPSTLSASVGDRVTITCRASQSFSSWLAWYQQKPGKAPKLLIYKASSLESGVPSRFSGSGSGTEFTLTISSLQPDDVATYYCQQYETFGQGTKVEIK", "binding result": "binds"}, {"binder": "G001_gp1_V10_VRC01c_2021-0105 (antibody, V domains shown) VH: QVQLVQSGAEVKKPGASVKVSCKASGYTFTGYYIHWVRQAPGQGLEWMGWINPNSGGTNYARQFEGWVTMTRDTSISTAYMELRRLRSDDTAMYYCATEDAVVAGTTFDYWGQGTLVTVSS VL: DIQMTQSPSTLSASVGDRVTITCRASQSMSSWLAWYQQKPGKAPKLLIYKASSLQSGVPSRFSGSGSGTEFTLTISSLQPDDFATYYCQQYNSFGGGTKVEIK", "binding result": "binds"}, {"binder": "G001_gp1_V10_VRC01c_2021-0111 (antibody, V domains shown) VH: not shown VL: DIQMTQSPSTLSASVGDRVTITCRASQSISSWLAWYQQKPGKAPKLLIYKASSLESGVPSRFSGSGSGTEFTLTISSLQPDDFATYYCQQYTTFGGGTKVEIK", "binding result": "binds"}, {"binder": "G001_gp1_V10_VRC01c_2021-0090 (antibody, V domains shown) VH: not shown VL: DNQMTQSPSSLSASVGDRVTITCRASQGISNSLAWYQQKPGKAPKLLLYASSRLESGVPSRFSGSGSGTDYTLTISSLQPEDFATYYCQQYETFGQGTKVEIK", "binding result": "binds"}, {"binder": "G001_gp1_V10_VRC01c_2021-0086 (antibody, V domains shown) VH: not shown VL: EIVMTQSPATLSVSPGERATLSCRASQSVSSNLAWYQQKPGQAPRLLIYGASTRATGIPARFSGSGSGTEFTLTISSLQSEDFAVYYCQQYQTFGQGTKLEIK", "binding result": "binds"}, {"binder": "G001_gp1_V10_VRC01c_2021-0096 (antibody, V domains shown) VH: not shown VL: EIVMTQSPATLSVSPGERATLSCRASQSVSSNLAWYQQKPGQAPRLLIYGASTRATGIPARFSGSGSGTEFTLTISSLQSEDLAVYYCQQYTAFGQGTKVEIK", "binding result": "binds"}, {"binder": "G001_gp1_V10_VRC01c_2021-0104 (antibody, V domains shown) VH: QVHLVQSGAEVKKPGASVKVSCKASGYSFTDYYIYWVRQAPGQGLEWMGWINPNSGGTNYAQKFQAWVTMTRDTSISTAYMELNRLTSDDTAVYYCARRTMPTTEFDSWGQGTLVTVSS VL: EIVLTQSPGTLSLSPGERVTLSCRASQSLSNNYLAWYQQKPGQAPRLLIYGVSNRATGIPDRFRGSGSGTDFTLTISRLEPEDCAVYYCQQYVSFGQGTKLEIK", "binding result": "binds"}, {"binder": "G001_gp1_V10_VRC01c_2021-0094 (antibody, V domains shown) VH: QVQLVQSGAEVKKPGASVKVSCKASGYTFTGYYMHWVRQAPGQGLEWMGWINPNSGGTNYAEKFQGWVTMTRDTSISTAYMELRRLKSDDTAVYYCATSLGGNPGRIWDMDVWGQGTTVTVSS VL: QSALTQPASVSGSPGQSITISCTGTSSDVGGYNFVSWYQQHPGKAPKLIIYDVTNRPSGVSNRFSGSKSGNTASLTISGLQAEDEANYYCSSYEVFGTGTKVTVL", "binding result": "binds"}, {"binder": "G001_gp1_V10_VRC01c_184 (antibody, V domains shown) VH: QVQLVQSGAEVKKPGASVKVSCKASGYTFTAYYMHWVRQAPGQGLEWMGWINPNSGGTNYAQKFQGRVTMTRDTSITTAYMELSRLRSDDTAVYYCAIESVVRHSWFDPWGQGTLVTVSS VL: EIVLTQSPGTLSLSPGERATLSCRASQNVSSSYLAWYQQKPGQAPRLLIYYASIRATGIPDRFSGSGSGTAFTLTISRLEPEDFAVYYCQQYEAFGQGTKVEIK", "binding result": "binds"}, {"binder": "G001_gp1_V10_VRC01c_2021-0088 (antibody, V domains shown) VH: QVQLVQSGAEVKKPGASVKVSCKASGYTFTGYYMHWVRQAPGQGLEWMGWINPNSGGTNYAQKFQDWVTMTRDTSISTAYMELSRLRSDDTAVYFCARVKGHYDSSGGWNFDLWGRGTLVTVSS VL: not shown", "binding result": "binds"}]}]}
